Article PMC3817118

Assays:
[1] = molecular target: central region of the human metapneumovirus phosphoprotein (HMPV P residues 158-237) (human metapneumovirus, strain NL1-00); test: SAXS; Pced in solution at 3-6 mg/ml, 20 C; 20 mM Tris pH 7.5 with 150 mM NaCl, 800 mM NaCl, or NaCl plus 1 M NDSB-201; molecular weight from the volume of correlation Vc compared with the mass of a tetramer
[2] = molecular target: core region of Pced (P_(core)), degradation fragment of HMPV P 158-237 found in the crystal (human metapneumovirus, strain NL1-00); test: crystal structure; vapor diffusion, 25 % PEG 3350, 100 mM HEPES pH 7.5, 20 C, crystal after ~142 days; 3.1 A, molecular replacement with the ab initio P_(core) model; 2 tetramers in the asymmetric unit

Substance | stoichiometry N [1] | stoichiometry N [2]
central region of the human metapneumovirus phosphoprotein (HMPV P residues 158-237) (domain or fragment) | 4 | –
core region of Pced (P_(core)), degradation fragment of HMPV P 158-237 found in the crystal (domain or fragment) | – | 4
